# Experimental data from patent US20080213817A1, “Enhancement of Th2-Dependent and Inflammatory Response” (priority 2004, published 2008).
# B1: IL-4: recombinant IL-4 (R&D Systems), added exogenously (protein, UniProt P05112 25-153, looked up)
# Interleukin-4: HKCDITLQEIIKTLNSLTEQKTLCTELTVTDIFAASKNTTEKETFCRAATVLRQFYSHHEKDTRCLGATAQQFHRHKQLIRFLKRLDRNLWGLAGLNSCPVKEANQSTLENFLERLKTIMREKYSKCSS
# System: WT thymocytes
# Test: Thymocyte proliferation, [3H] thymidine incorporation
# Format: cell-based, mice
# Conditions: anti-CD3 or anti-CD3+anti-CD28, 72 hrs, increasing amounts of IL-4
# Method: For proliferation assays, purified thymocytes or CD4^+ or CD8^+ splenic T cells (2×10^5 cells/well) were cultured in round bottom 96-well plates (Costar) precoated with anti-CD3 antibody (BD Pharmingen) in the absence or presence of soluble anti-CD28 antibody (BD Pharmingen). After 3 days, cultures were pulsed for 6 hrs with 1 μCi [^3H] thymidine (New England Nuclear) per well and cells were harvested. [^3H] thymidine incorporation was measured by scintillation counting. When indicated, either recombinant IL-4 or neutralizing anti-IL-4 antibody (R&D Systems) were added prior to [^3H] thymidine labeling.
# For proliferation assays, purified thymocytes (2×10^5 cells/well) were cultured in round bottom 96-well plates (Costar) precoated with anti-CD3 antibody (BD Pharmingen) in the absence or presence of soluble anti-CD28 antibody (BD Pharmingen). […] [^3H] thymidine incorporation was measured by scintillation counting. […]
# The effect of the Mekk1^KD mutation on activation of JNK and other MAPKs in response to TCR and CD28 engagement was investigated. • A. WT and Mekk1^KD thymocytes were incubated with anti-CD3 (10 μg/ml) and anti-CD28 (1 μg/ml). At the indicated times, JNK activity was measured by an immunecomplex kinase assay using GST-c-Jun(1-79) as the substrate. Phosphorylated c-Jun was detected by autoradiography and quantitated using a PhosphorImager. […] Cell proliferation was measured as above. […]
molecule,measurement,value
B1,proliferative response of WT thymocytes on addition of exogenous IL-4,strongly potentiated
